Source: patent publication US20090111753A1, “Nogo-A Polypeptide Fragments, Variant Nogo Receptor-1 Polypeptides, and Uses Thereof” (Yale University, priority 2004, published 2009)
Numbering of substitutions follows the chain as printed. Numbers in names are those of the source.

B1: AP fusion protein with the B4C fragment of Amino-Nogo-A fused directly to Nogo-66 (ligand)
chain: LLPPDVSALATQAEIESIVKPKVLVKEAEKKLPSDTEKEDRSPSAIFSAELSKTSVVDLLYWRDIKKTGRIYKGVIQAIQKSDEGHPFRAYLESEVAISEELVQKYSNSALGHVNCTIKELRRLFLVDDLVDSLK
notes: domain: Nogo-66; also called AP-B4C66; AP-B4C-66; not shown: alkaline phosphatase (AP), vector pcAP6
B2: NgR expressed on COS-7 cells (species not stated) (receptor)
chain: CPGACVCYNEPKVTTSCPQQGLQAVPVGIPAASQRIFLHGNRISHVPAASFRACRNLTILWLHSNVLARIDAAAFTGLALLEQLDLSDNAQLRSVDPATFHGLGRLHTLHLDRCGLQELGPGLFRGLAALQYLYLQDNALQALPDDTFRDLGNLTHLFLHGNRISSVPERAFRGLHSLDRLLLHQNRVAHVHPHAFRDLGRLMTLYLFANNLSALPTEALAPLRALQYLRLNDNPWVCDCRARPLWAWLQKFRGSSSEVPCSLPQRLAGRDLKRLAANDLQGCAVATGPYHPIWTGRATDEEPLGLPKCCQPDAADKASVLEPGRPASAGNALKGRVPPGDSPPGNGSGPRHINDSPFGTLPGSAEPPLTAVRPEGSEPPGFPTSGPRRRPGCSRKNRTRSHCRLGQAGSGGGGTGDSEGSGALPSLTCSLTPLGLALVLWTVLGPC

Legend:
[1] = target: T1, human NgR1 alanine mutant 82, 179 (human, UniProt Q9BZR6 27-473); test: AP-ligand binding, COS-7
T1 sequence: B2 chain with N56A, N153A

[2] = target: T2, human NgR1 alanine mutant 163 (human, UniProt Q9BZR6 27-473); test: AP-ligand binding, COS-7
T2 sequence: B2 chain with D137A

[3] = target: T3, human NgR1 alanine mutant 158, 160 (human, UniProt Q9BZR6 27-473); test: AP-ligand binding, COS-7
T3 sequence: B2 chain with Y132A, Y134A

[4] = target: T4, human NgR1 alanine mutant 182, 186 (human, UniProt Q9BZR6 27-473); test: AP-ligand binding, COS-7
T4 sequence: B2 chain with H156A, H160A

[5] = target: T5, human NgR1 alanine mutant 133, 136 (human, UniProt Q9BZR6 27-473); test: AP-ligand binding, COS-7
T5 sequence: B2 chain with H107A, H110A

[6] = target: T6, human NgR1 alanine mutant 232, 234 (human, UniProt Q9BZR6 27-473); test: AP-ligand binding, COS-7
T6 sequence: B2 chain with Y206A, F208A

[7] = target: T7, NgR expressed on COS-7 cells (species not stated); test: AP-ligand binding to NgR-expressing COS-7 cells (Scatchard)
T7 chain: B2 chain

[8] = target: T8, AP-fused Amino-Nogo fragment B (a.a. 622-1018) (human, UniProt Q9NQC3 622-1018); test: AP fusion on NgR-expressing COS-7 cells
T8 construct: also called AmNg B; AP-AmNgB; not shown: alkaline phosphatase (AP), vector pcAP6
T8 sequence: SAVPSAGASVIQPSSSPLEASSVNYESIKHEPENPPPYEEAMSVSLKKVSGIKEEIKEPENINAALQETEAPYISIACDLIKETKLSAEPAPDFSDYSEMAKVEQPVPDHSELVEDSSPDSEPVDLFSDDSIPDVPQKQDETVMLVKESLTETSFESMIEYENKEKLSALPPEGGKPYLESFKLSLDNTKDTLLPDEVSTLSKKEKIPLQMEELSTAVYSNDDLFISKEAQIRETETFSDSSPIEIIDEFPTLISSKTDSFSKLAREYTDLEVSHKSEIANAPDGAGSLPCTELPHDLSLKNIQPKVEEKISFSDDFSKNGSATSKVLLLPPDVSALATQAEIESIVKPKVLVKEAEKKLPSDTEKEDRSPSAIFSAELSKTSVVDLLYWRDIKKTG
From the text: (§1) Several alkaline phosphatase (AP) fusion proteins containing various Nogo-A segments derived from regions between the amino terminus and the first hydrophobic segment were examined to identify the mechanism of Amino-Nogo-A action. To generate additional AP fusion proteins, human amino Nogo fragments were amplified and ligated to the pcAP6 vector digested with restriction enzymes EcoRI and XhoI as described (Fournier, A. E., et al., Nature 409:341-346 (2001)). Plasmids were then transfected into HEK293T cells and conditioned media were collected after 7 days. None of these fragments bind with high affinity to non-transfected COS-7 cells. […] This binding is saturable with a Kd indistinguishable from that for AP-Nogo-66 association with NgR (Table I). To better define the region responsible for Amino-Nogo interaction with NgR, a range of truncation mutants of Amino-Nogo were examined as AP fusion proteins.
(§2) Binding Kds for AP fused Amino-Nogo fragments were measured by applying conditioned media containing AP fusion protein to NgR expressing COS-7 cells. Bound AP was stained and measured.

[9] = target: B1; test: AP fusion on NgR-expressing COS-7 cells
From the text: as §1, §2

[10] = target: T9, AP-fused Amino-Nogo fragment B4 (a.a. 877-1018) (human, UniProt Q9NQC3 877-1018); test: AP fusion on NgR-expressing COS-7 cells
T9 construct: also called AmNg B4; AP-B4; not shown: alkaline phosphatase (AP), vector pcAP6
T9 sequence: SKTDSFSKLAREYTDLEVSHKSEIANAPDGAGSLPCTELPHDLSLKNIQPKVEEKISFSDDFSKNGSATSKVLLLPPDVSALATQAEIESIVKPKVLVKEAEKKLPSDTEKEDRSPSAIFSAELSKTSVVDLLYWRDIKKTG
From the text: as §1, §2

[11] = target: T10, AP-fused Amino-Nogo fragment B4C (a.a. 950-1018) (human, UniProt Q9NQC3 950-1018); test: AP fusion on NgR-expressing COS-7 cells
T10 construct: also called AmNg B4C; AP-B4C; not shown: alkaline phosphatase (AP), vector pcAP6
T10 sequence: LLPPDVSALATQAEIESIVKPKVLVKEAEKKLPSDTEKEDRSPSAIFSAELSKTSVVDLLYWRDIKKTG
From the text: as §1, §2

Row | Binder | binding result [1] | binding result [2] | binding result [3] | binding result [4] | binding result [5] | binding result [6] | Kd [7] [nM] | Kd [8] [nM] | Kd [9] [nM] | Kd [10] [nM] | Kd [11] [nM]
1 | B1 | no binding | no binding | no binding | no binding | no binding | no binding | 0.42 | – | – | – | –
2 | B2 | – | – | – | – | – | – | – | 6.66 | < 1 | 9.01 | 3.51
